Assay [1] addresses rhTSLP-hFc (human). Kind of assay: cell-based or functional assay.
Assay [2] concerns the target rhTSLP-hFc (human). The assay can be described thus: cell-based or functional assay. This is another data set of the same source.

Like-named read-outs stand apart in the source and are kept apart here.

Chain of rhTSLP-hFc (human) (chain, as listed by the source limits assumed): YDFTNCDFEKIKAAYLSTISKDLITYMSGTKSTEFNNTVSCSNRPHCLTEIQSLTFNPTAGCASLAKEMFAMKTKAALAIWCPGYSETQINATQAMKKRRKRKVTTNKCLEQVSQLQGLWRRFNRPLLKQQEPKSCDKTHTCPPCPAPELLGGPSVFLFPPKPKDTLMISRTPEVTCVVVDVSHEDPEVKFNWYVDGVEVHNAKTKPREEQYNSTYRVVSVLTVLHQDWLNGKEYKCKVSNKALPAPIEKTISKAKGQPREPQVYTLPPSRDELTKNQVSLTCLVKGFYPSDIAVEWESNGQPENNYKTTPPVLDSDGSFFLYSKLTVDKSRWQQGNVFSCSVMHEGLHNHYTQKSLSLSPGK

Take “人TSLP单抗Tezepelumab/MEDI9929(Amgen) (antibody)”: the IC50, 抑制TSLP刺激的293F转染细胞STAT5-荧光素酶活性 in assay [1] amounted to 7.04 µg/mL; in assay [2], 5.72 µg/mL.

The values above are taken from patent CN111196850A.
